Earlier results as cited in paper PMC3470569.

Biological target: V-ATPase subunit a proximal lobe of N-terminal domain (Saccharomyces cerevisiae) (UniProt P32563)
Sequence (P32563 104-372): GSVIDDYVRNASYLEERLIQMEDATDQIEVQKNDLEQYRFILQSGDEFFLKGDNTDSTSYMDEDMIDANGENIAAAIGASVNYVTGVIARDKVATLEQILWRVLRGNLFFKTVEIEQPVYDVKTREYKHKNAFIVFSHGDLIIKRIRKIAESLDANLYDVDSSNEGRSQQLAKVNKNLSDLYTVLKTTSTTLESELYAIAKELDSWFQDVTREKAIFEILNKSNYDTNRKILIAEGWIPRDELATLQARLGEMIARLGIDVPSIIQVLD

Chain of V-ATPase subunit C Cfoot (P31412 158-277): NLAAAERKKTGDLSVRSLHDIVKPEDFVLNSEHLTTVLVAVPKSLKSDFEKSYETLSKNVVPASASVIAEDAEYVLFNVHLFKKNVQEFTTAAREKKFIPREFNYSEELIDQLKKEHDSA

In the case of “V-ATPase subunit C Cfoot (from UniProt P31412)”, the Kd is listed as 30 µM.
